Reference: article PMC4457860, “In Vitro Interaction of the Housekeeping SecA1 with the Accessory SecA2 Protein of Mycobacterium tuberculosis” (PLoS ONE, 2015)
Changes are numbered by the printed parent chain. Numbers in names are those of the source.

How the values were obtained:
[1] = molecular target: Mycobacterium tuberculosis SecA1(S945C) labeled with Cy5 (Mycobacterium tuberculosis strain H37Rv) (UniProt P9WGP5); assay: MST; Monolith NT.115; unlabeled protein (1 nM to 5 μM) titrated into 25 nM Cy5-labeled protein, mixed in 300 mM KCl, then diluted into low salt buffer (25 mM HEPES-KOH pH 7.5, 30 mM KCl, 2 mM MgCl2, 50 mM arginine); Hill fit, apparent Kd; dimer to monomers
[2] = molecular target: Mycobacterium tuberculosis SecA2(S802C) labeled with Cy5 (Mycobacterium tuberculosis strain H37Rv) (UniProt P9WGP3); assay: as above
[3] = molecular target: Mycobacterium tuberculosis SecA1(S945C) labeled with Cy5 (Mycobacterium tuberculosis strain H37Rv) (UniProt P9WGP5); assay: MST; as the low salt experiment, but at moderate salt concentration (150 mM KCl); dimer to monomers
[4] = molecular target: Mycobacterium tuberculosis SecA1(S945C) labeled with Cy5, P9WGP5; assay: fluorescence cross-correlation spectroscopy (FCCS); SecA1-Cy5 and SecA2-AF488 mixed 1:1 in 300 mM KCl, exchanged on NAP5 into 25 mM HEPES-KOH pH 7.5, 30 mM KCl, 2 mM MgCl2, 50 mM arginine; 10 min at room temperature; LSM710 confocal microscope; conditions: other: fluorescence cross-correlation spectroscopy (FCCS)
[5] = molecular target: T1, Mycobacterium tuberculosis SecA2(S802C) labeled with Cy5 (Mycobacterium tuberculosis strain H37Rv, UniProt P9WGP3 31-808, S802C, Cy5 (Cy5-maleimide label)); assay: MST; as the low salt experiment, but at moderate salt concentration (150 mM KCl); dimer to monomers; conditions: both partners purified
T1 construct: also called SecA2-Cy5; PIP154
T1 sequence: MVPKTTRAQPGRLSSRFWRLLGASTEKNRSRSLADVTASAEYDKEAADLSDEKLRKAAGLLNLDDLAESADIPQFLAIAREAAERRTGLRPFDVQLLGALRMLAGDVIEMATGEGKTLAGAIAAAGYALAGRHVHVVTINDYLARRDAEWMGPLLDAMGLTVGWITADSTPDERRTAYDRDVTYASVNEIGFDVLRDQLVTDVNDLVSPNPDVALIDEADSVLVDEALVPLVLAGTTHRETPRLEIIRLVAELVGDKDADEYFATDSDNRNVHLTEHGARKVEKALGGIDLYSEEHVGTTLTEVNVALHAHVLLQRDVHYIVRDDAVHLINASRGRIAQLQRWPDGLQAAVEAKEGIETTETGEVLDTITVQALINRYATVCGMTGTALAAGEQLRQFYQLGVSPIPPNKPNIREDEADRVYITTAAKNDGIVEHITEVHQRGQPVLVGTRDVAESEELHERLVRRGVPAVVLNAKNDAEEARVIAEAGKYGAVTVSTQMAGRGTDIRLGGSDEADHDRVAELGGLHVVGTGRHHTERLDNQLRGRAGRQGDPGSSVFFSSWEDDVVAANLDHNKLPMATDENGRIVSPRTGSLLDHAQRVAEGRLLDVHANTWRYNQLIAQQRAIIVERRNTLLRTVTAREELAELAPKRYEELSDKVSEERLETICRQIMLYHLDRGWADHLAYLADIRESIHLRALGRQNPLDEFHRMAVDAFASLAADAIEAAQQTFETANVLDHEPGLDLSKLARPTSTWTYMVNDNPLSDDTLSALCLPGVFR

[6] = molecular target: T1, Mycobacterium tuberculosis SecA2(S802C) …; assay: MST; Monolith NT.115; unlabeled protein (1 nM to 5 μM) titrated into 25 nM Cy5-labeled protein, mixed in 300 mM KCl, then diluted into low salt buffer (25 mM HEPES-KOH pH 7.5, 30 mM KCl, 2 mM MgCl2, 50 mM arginine); Hill fit, apparent Kd; dimer to monomers; conditions: both partners purified
[7] = molecular target: Mycobacterium tuberculosis SecA1(S945C) labeled with Cy5 (Mycobacterium tuberculosis strain H37Rv) (UniProt P9WGP5); assay: as above; remark: listed apart in the source

## Mycobacterium tuberculosis SecA1 (unlabeled) (from UniProt P9WGP5 1-949) (natural protein)
[1]
  Kd: 65 nM
[2]
  Kd: 438 nM
[3]
  Kd: 298 nM

B1: Mycobacterium tuberculosis SecA2(S802C) labeled with AlexaFluor 488 (protein)
chain: T1 sequence
[4]
  percent of all proteins co-migrating as heterodimers: 12% of all proteins co-migrated as heterodimers

B2: Mycobacterium tuberculosis SecA2 (unlabeled) (natural protein)
chain: T1 sequence with C773S
notes: No tag; molecular mass 85 kDa on SDS-PAGE; also called PIP152
[5]
  Kd: 618 ± 36.5 nM
[6]
  Kd: 161 ± 6.2 nM
[7]
  Kd: 378 nM
